Measured values reported in patent publication US11779649B2, “Antibodies to PMEL17 and conjugates thereof” (Novartis AG, priority 2018, dated 2023).
Read-outs that look alike come from different tables or passages of the source. Starred links: 1 amine or outer side, 2 acyl side, 3 side chain; linkers in the order of their positions; H or OH if unused. Positions of bridges follow the written chain, without caps; N, C: chain ends. Non-standard residues stand in square brackets, D forms with d. Residues, ends and D or L forms follow the SMILES beside them. *: point of attachment. Leu(3R-OH,Nα-propionyl) = CCC(=O)N[C@H](C(=O)*)[C@H](O)C(C)C; X1 = CC(C)[C@@H](O[*:3])[C@H](N[*:1])C(=O)[*:2]; NMeT = CN[C@H](C(=O)O)[C@@H](C)O; dPhLac = O=C(O)[C@H](O)Cc1ccccc1; NMeA = CN[C@@H](C)C(=O)O; NMeDha = C=C(NC)C(=O)O

T1: human PMEL17 (Homo sapiens, UniProt P40967)
T1 construct: G-361 melanoma cell line expresses human PMEL17 at a lower level compared to the HKB11-human PMEL17 overexpressing cell line; endogenous in cells; host or cells: G-361 (human melanoma)
T1 sequence (P40967 25-661): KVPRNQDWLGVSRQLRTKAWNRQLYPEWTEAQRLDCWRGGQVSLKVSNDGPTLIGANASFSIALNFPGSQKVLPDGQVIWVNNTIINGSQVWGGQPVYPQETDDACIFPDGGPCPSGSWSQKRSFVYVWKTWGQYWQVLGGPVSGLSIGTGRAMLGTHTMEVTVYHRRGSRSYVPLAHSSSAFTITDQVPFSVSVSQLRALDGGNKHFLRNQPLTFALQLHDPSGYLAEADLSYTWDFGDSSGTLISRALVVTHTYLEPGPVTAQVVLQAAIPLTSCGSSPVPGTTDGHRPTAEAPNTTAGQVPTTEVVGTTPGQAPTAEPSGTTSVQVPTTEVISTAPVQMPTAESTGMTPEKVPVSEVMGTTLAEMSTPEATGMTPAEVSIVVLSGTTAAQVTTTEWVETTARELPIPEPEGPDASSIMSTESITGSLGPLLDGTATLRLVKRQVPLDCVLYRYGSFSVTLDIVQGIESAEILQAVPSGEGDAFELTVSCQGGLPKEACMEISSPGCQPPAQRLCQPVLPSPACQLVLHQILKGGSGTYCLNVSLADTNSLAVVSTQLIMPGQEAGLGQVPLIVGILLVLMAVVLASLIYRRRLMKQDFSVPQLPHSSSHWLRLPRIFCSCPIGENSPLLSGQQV

T2: mouse PMEL17 (Mus musculus, UniProt Q60696)
T2 construct: B16-F10 (mouse PMEL17 expressing melanoma); endogenous in cells; host or cells: B16-F10 (mouse melanoma)
T2 sequence (Q60696 24-626): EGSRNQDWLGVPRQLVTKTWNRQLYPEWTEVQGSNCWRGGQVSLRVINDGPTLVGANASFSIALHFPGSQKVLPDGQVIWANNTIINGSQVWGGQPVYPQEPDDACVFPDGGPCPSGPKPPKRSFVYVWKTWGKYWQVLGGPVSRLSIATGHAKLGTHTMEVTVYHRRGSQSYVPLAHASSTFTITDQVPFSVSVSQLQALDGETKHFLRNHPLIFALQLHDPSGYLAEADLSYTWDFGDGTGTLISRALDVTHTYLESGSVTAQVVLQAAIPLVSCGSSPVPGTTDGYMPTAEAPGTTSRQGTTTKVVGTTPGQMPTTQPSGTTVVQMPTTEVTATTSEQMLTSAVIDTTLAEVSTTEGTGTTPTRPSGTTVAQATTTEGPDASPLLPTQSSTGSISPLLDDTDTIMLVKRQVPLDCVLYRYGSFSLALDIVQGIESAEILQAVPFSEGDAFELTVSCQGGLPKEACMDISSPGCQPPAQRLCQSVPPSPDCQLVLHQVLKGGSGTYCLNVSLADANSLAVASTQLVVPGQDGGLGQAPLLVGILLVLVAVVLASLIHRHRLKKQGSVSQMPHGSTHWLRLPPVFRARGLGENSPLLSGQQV


What was measured:
92.1 uveal melanoma = assay: Resazurin-based viability assay, 92.1 uveal melanoma cells; assay type: cell-based; conditions: 92.1 GNAQ^Q209L; Table 1; read-out: GI50 (nM) 92.1GNAQ^Q209L
Procedure: (§1) Following drug treatment for 96 or 120 hours, cell viability and proliferation were determined using a resazurin-based viability assay. Briefly, cells were incubated with a resazurin-based solution and color change was detected by absorbance with a spectrophotometer and used as a readout of cell viability. Data presented as mean of 3 independent replicates and relative to PBS-treated cells (control).
as §1, with “(control) (FIG. 6).” for “(control).”
Following drug treatment for 96 or 120 hours, cell viability and proliferation were determined using a resazurin-based viability assay. Data presented as mean of 3 independent replicates and relative to PBS-treated cells (control) (FIG. 8).
as §1

human PMEL17 = molecular target: T1, human PMEL17; assay: Apparent affinity by FACS titration of IgGs on G-361 melanoma cell line; assay type: binding
Procedure: (§2) Purified IgGs were titrated on a variety of PMEL17 expressing and PMEL17 non expressing cell lines (for control) to determine EC50 values. Cells were harvested using Accutase, adjusted to ˜4×10^6 cells/ml into FACS buffer (PBS, 3% FCS and 0.02% Na-Azide) and kept on ice to avoid internalization. 15 μl of cell suspension/well were transferred into 384 well V-bottom plates (Greiner, Cat #781280) and incubated with 15 μl of IgGs at different concentrations (most commonly from 200 to 3.5×10−3 nM) for 1 hour at 4° C., gently shaking. Following incubation, cells were washed three times with FACS buffer. After each washing step, cells were centrifuged (250×g, 5 min, 4° C.) and carefully resuspended. 15 μl of detection antibody conjugated to PE (PE-conjugated goat anti-human IgG, F(ab′)2 fragment specific, 1:150 in FACS buffer; Jackson Immuno Research, #109-116-097) or Alexa Fluor (Alexa Fluor-conjugated goat anti-human IgG, F(ab′)2 fragment specific, 1:150 in FACS buffer; Jackson Immuno Research, #109-606-097) were added and samples were incubated for 45 minutes to 1 hour on ice in the dark, gently shaking. After 3 washing steps, cells were resuspended in 30 μl of FACS buffer and samples were measured using the IntelliCyt HTFC device. EC50 values were calculated using the Graphpad Prism software. G-361 melanoma cell line expresses human PMEL17 at a lower level compared to the HKB11-human PMEL17 overexpressing cell line, and therefore allows a more precise ranking of the clones depending on their apparent affinity on cells.
The cross-specificity of the IgGs was evaluated in does response FACS on G-361 (human melanoma), HKB11-cyno-PMEL17, HKB11-rat PMEL17 and B16-F10 (mouse PMEL17 expressing melanoma) (Table 3). […]

UACC-62 = assay: FACS titration of IgGs on UACC-62 cells; assay type: binding; conditions: UACC-62, PE-labelled detection antibody
Procedure: as §2

PMEL17 = assay: Cross-reactivity (cross-specificity profile) of anti-PMEL17 IgGs in dose response FACS; assay type: binding; set-up: key: h/c/r/m: human/cyno/rat/mouse; h/c/r: human/cyno/rat; h/c/(m): human/cyno/mouse; h/c: human/cyno; conditions: h human, c cyno, r rat, m mouse
Procedure: (§3) The cross-specificity of the IgGs was evaluated in does response FACS on G-361 (human melanoma), HKB11-cyno-PMEL17, HKB11-rat PMEL17 and B16-F10 (mouse PMEL17 expressing melanoma) (Table 3). Testing on G-361 was performed using a detection antibody labelled to PE. In contrast, an Alexa-Fluor labelled detection antibody had to be used for testing the candidates on the other cell lines so as to reach detectable signals.
IgGs were classified into several epitope groups according to their cross-specificity profiles.

mouse PMEL17 = molecular target: T2, mouse PMEL17; assay: Apparent affinity by FACS titration of IgGs on B16-F10 melanoma cells; assay type: binding; conditions: Alexa Fluor
Procedure: as §2, §3

[1] = G-361, PE-labelled detection antibody, read-out: FACS EC50 (nM) G-361 (PE)
[2] = G-361, Alexa Fluor-labelled detection antibody, read-out: FACS EC50 (nM) G-361 (Alexa Fluor)

Molecule | EC50 (human PMEL17; [1]) | EC50 (human PMEL17; [2]) | EC50 (mouse PMEL17) | GI50 (92.1 uveal melanoma) | UACC-62 (PE) (UACC-62) | Cross spe profile (based on C14 detection ab) (PMEL17)
C=C1C(=O)N[C@@H](C)C(=O)N(C)[C@@H](C)C(=O)N[C@@H]([C@H](OC(=O)[C@@H](NC(=O)CC)[C@H](O)C(C)C)C(C)C)C(=O)N(C)[C@@H]([C@@H](C)OC)C(=O)O[C@H](C)[C@H](NC(C)=O)C(=O)O[C@H](Cc2ccccc2)C(=O)N1C [Compound (A3), (R)-1-((3S,6S,9S,12S,18R,21S,22R)-21-acetamido-18-benzyl-3-((R)-1-methoxyethyl)-4,9,10,12,16,22-hexamethyl-15-methylene-2,5,8,11,14,17,20-heptaoxo-1,19-dioxa-4,7,10,13,16-pentaazacyclodocosan-6-yl)-2-methylpropyl (2S,3R)-3-hydroxy-4-methyl-2-propionamidopentanoate] (Ac-T[dPhLac][NMeDha]A[NMeA][X1](Leu(3R-OH,Nα-propionyl))[NMeT](Me); ester 1-C) | – | – | – | 9.3 nM | – | –
Y010355: anti-PMEL17 antibody (IgG) (antibody, V domains shown) VH: EVQLVESGGGLVKPGGSLRLSCAASGFTFSNYWISWVRQAPGKGLEWVGRIKSKTYGGTTDYAEPVKGRFTISRDDSKNTLYLQMNSLKTEDTAVYYCARTSRRSYAFDYWGQGTLVTVSS VL: DIQMTQSPSTLSASVGDRVTITCRASQSISSWLAWYQQKPGKAPKLLIYDASSLESGVPSRFSGSGSGTEFTLTISSLQPEDFATYYCQQITRYPVTFGQGTKVEIK | 0.5 nM | – | – | – | Negative | h/c/r/m
Y010906: anti-PMEL17 antibody (IgG) (antibody, V domains shown) VH: EVQLVESGGGLVKPGGSLRLSCAASGFTFSNAWMSWVRQAPGKGLEWVGRIKSKTDAGTTDYAAPVKGRFTISRDDSKNTLYLQMNSLKTEDTAVYYCARDEYPWGWFDVWGQGTLVTVSS VL: DIQMTQSPSSVSASVGDRVTITCRASQGISSWLAWYQQKPGKAPKLLIYAASSLQSGVPSRFSGSGSGTDFTLTISSLQPEDFATYYCQQYIFYPLTFGQGTKVEIK | – | – | – | – | Negative | h/c/r/m
Y010356: anti-PMEL17 antibody (IgG) (antibody, V domains shown) VH: EVQLVESGGGLVKPGGSLRLSCAASGFTFSNYWISWVRQAPGKGLEWVGRIKSKTYGGTTDYAEPVKGRFTISRDDSKNTLYLQMNSLKTEDTAVYYCARVSGYYSHSGGFDVWGQGTLVTVSS VL: DIQMTQSPSSLSASVGDRVTITCRASQGISNYLAWYQQKPGKVPKLLIYAASTLQSGVPSRFSGSGSGTDFTLTISSLQPEDVATYYCQKTWRTPGTFGQGTKVEIK | 1.6 nM | – | – | – | Negative | h/c/r/m

More lines, main results first:

EC50 (human PMEL17; [1]) | EC50 (human PMEL17; [2]) | EC50 (mouse PMEL17) | Molecule | GI50 (92.1 uveal melanoma) | UACC-62 (PE) (UACC-62) | Cross spe profile (based on C14 detection ab) (PMEL17)
– | 3.2 nM | – | Y010903: anti-PMEL17 antibody (IgG) (antibody, V domains shown) VH: EVQLVESGGGLVKPGGSLRLSCAASGFTFSNAWMSWVRQAPGKGLEWVGRIKSKTDAGTTDYAAPVKGRFTISRDDSKNTLYLQMNSLKTEDTAVYYCARASHRLHSLFDVWGQGTLVTVSS VL: DIQMTQSPSTLSASVGDRVTITCRASQSISSWLAWYQQKPGKAPKLLIYDASSLESGVPSRFSGSGSGTEFTLTISSLQPEDFATYYCQQGLFYPHTFGQGTKVEIK | – | Negative | h/c/(m)
– | 1.3 nM | > 100 nM | Y010900: anti-PMEL17 antibody (IgG) (antibody, V domains shown) VH: EVQLVESGGGLVKPGGSLRLSCAASGFTFSNAWMSWVRQAPGKGLEWVGRIKSKTDAGTTDYAAPVKGRFTISRDDSKNTLYLQMNSLKTEDTAVYYCARTIYPSAPSSSLDYWGQGTLVTVSS VL: DIQMTQSPSSLSASVGDRVTITCRASQGISNYLAWYQQKPGKVPKLLIYAASTLQSGVPSRFSGSGSGTDFTLTISSLQPEDVATYYCQQLIFFPLTFGQGTKVEIK | – | Negative | h/c/r/m
– | 10 nM | – | Y010910: anti-PMEL17 antibody (IgG) (antibody, V domains shown) VH: EVQLVESGGGLVKPGGSLRLSCAASGFTFSNAWMSWVRQAPGKGLEWVGRIKSKTDAGTTDYAAPVKGRFTISRDDSKNTLYLQMNSLKTEDTAVYYCARVASPSAPGGFDYWGQGTLVTVSS VL: DIQMTQSPSSLSASVGDRVTITCRASQGISNYLAWYQQKPGKVPKLLIYAASTLQSGVPSRFSGSGSGTDFTLTISSLQPEDVATYYCQQSLFAPFTFGQGTKVEIK | – | Negative | h/c/(m)
– | 1.7 nM | > 100 nM | MOR024354: anti-PMEL17 antibody (IgG) (antibody, V domains shown) VH: QVQLLESGGGLVQPGGSLRLSCAASGFTFSSFGMSWVRQAPGKGLEWVSAISYSGSDTYYADSVKGRFTISRDNSKNTLYLQMNSLRAEDTAVYYCARDVGVMDYWGQGTLVTVSS VL: SYELTQPLSVSVALGQTARITCSGDNLGTYYAHWYQQKPGQAPVLVIYSQSHRPSGIPERFSGSNSGNTATLTISRAQAGDEADYYCGAWDAPSPELVFGGGTKLTVL | – | Negative | h/c/r
